Assay results from the supplement of paper PMC10567573.

B1: SMTNL2 (parent)
chain: AFTMAENLANCERLIEVEDMMVMG

Variants of: B1
Assay: protein stability index of a GFP-peptide fusion (GPS, HEK-293T) (PSI 1-6); higher = more stable
Conditions: c terminus: a fixed tail appended
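Further: lentivirally expressed fusions sorted by FACS into six bins by GFP to DsRed ratio, PSI derived from sequencing read proportions per bin multiplied by bin number.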

Variant | protein stability index
AFTMAENLANCERLIEVWDMMVMG [E18W] | 1.02
AFTMAENLANCERLIEVYDMMVMG [E18Y] | 3.52
AFTMAENLANCERLIEVEQMMVMG [D19Q] | 2.06
AFTMAENLANCERLIEVESMMVMG [D19S] | 1.62
AFTMAENLANCERLIEVEFMMVMG [D19F] | 2.37
AFTMAENLANCERLIEVEAMMVMG [D19A] | 2.36
AFTMAENLANCERLIEVEKMMVMG [D19K] | 3.26
AFTMAENLANCERLIEVEPMMVMG [D19P] | 1.71
AFTMAENLANCERLIEVEGMMVMG [D19G] | 2.52
AFTMAENLANCERLIEVENMMVMG [D19N] | 2.63
AFTMAENLANCERLIEVEEMMVMG [D19E] | 1.48
AFTMAENLANCERLIEVEHMMVMG [D19H] | 1.28
AFTMAENLANCERLIEVEYMMVMG [D19Y] | 2.48
AFTMAENLANCERLIEVEWMMVMG [D19W] | 4.57
AFTMAENLANCERLIEVERMMVMG [D19R] | 1.39
AFTMAENLANCERLIEVETMMVMG [D19T] | 1.94
AFTMAENLANCERLIEVEDDMVMG [M20D] | 4.75
AFTMAENLANCERLIEVEDHMVMG [M20H] | 2.98
AFTMAENLANCERLIEVEDVMVMG [M20V] | 2.68
AFTMAENLANCERLIEVEDTMVMG [M20T] | 3.4
AFTMAENLANCERLIEVEDEMVMG [M20E] | 4.02
AFTMAENLANCERLIEVEDCMVMG [M20C] | 2.74
AFTMAENLANCERLIEVEDSMVMG [M20S] | 2.27
AFTMAENLANCERLIEVEDLMVMG [M20L] | 1.9

Variant | protein stability index
AFTMAENLANCERLIEVEDYMVMG [M20Y] | 1.72
AFTMAENLANCERLIEVEDKMVMG [M20K] | 2.91
AFTMAENLANCERLIEVEDGMVMG [M20G] | 2.47
AFTMAENLANCERLIEVEDIMVMG [M20I] | 2.03
AFTMAENLANCERLIEVEDRMVMG [M20R] | 2.16
AFTMAENLANCERLIEVEDPMVMG [M20P] | 3.77
AFTMAENLANCERLIEVEDQMVMG [M20Q] | 2.72
AFTMAENLANCERLIEVEDAMVMG [M20A] | 2.42
AFTMAENLANCERLIEVEDWMVMG [M20W] | 2.51
AFTMAENLANCERLIEVEDNMVMG [M20N] | 3.03
AFTMAENLANCERLIEVEDMMVPG [M23P] | 2
AFTMAENLANCERLIEVEDMMVKG [M23K] | 2.8
AFTMAENLANCERLIEVEDMMVYG [M23Y] | 1.88
AFTMAENLANCERLIEVEDMMVRG [M23R] | 1.97
AFTMAENLANCERLIEVEDMMVAG [M23A] | 2.61
AFTMAENLANCERLIEVEDMMVGG [M23G] | 1.7
AFTMAENLANCERLIEVEDMMVWG [M23W] | 2.1
AFTMAENLANCERLIEVEDMMVQG [M23Q] | 3.21
AFTMAENLANCERLIEVEDMMVNG [M23N] | 2.97
AFTMAENLANCERLIEVEDMMVVG [M23V] | 2.38
AFTMAENLANCERLIEVEDMMVIG [M23I] | 1.47
AFTMAENLANCERLIEVEDMMVFG [M23F] | 1.54
AFTMAENLANCERLIEVEDMMVCG [M23C] | 2.09
AFTMAENLANCERLIEVEDMMVEG [M23E] | 3.69

Variant | protein stability index
AFTMAENLANCERLIEVEDMMVTG [M23T] | 1.8
AFTMAENLANCERLIEVEDMMVSG [M23S] | 2.69
AFTMAENLANCERLIEVEDMMVLG [M23L] | 1.89
AFTMAENLANCERLIEVEDMMVDG [M23D] | 3.57
AFTMAENLANCERLIEVEDMMVHG [M23H] | 2.24
AFTMAENLANCERLIEVEDMMVMA [G24A] | 2.03
AFTMAENLANCERLIEVEDMMVME [G24E] | 2.93
AFTMAENLANCERLIEVEDMMVMD [G24D] | 2.33
AFTMAENLANCERLIEVEDMMVMC [G24C] | 1.52
AFTMAENLANCERLIEVEDMFVMG [M21F] | 2.56
AFTMAENLANCERLIEVEDMCVMG [M21C] | 2.14
AFTMAENLANCERLIEVEDMYVMG [M21Y] | 2.22
AFTMAENLANCERLIEVEDMGVMG [M21G] | 2.12
AFTMAENLANCERLIEVEDMTVMG [M21T] | 2.68
AFTMAENLANCERLIEVEDMKVMG [M21K] | 2.95
AFTMAENLANCERLIEVEDMIVMG [M21I] | 1.98
AFTMAENLANCERLIEVEDMQVMG [M21Q] | 3
AFTMAENLANCERLIEVEDMPVMG [M21P] | 3.27
AFTMAENLANCERLIEVEDMHVMG [M21H] | 3.02
AFTMAENLANCERLIEVEDMWVMG [M21W] | 1.9
AFTMAENLANCERLIEVEDMSVMG [M21S] | 2.65
AFTMAENLANCERLIEVEDMAVMG [M21A] | 2.37
AFTMAENLANCERLIEVEDMVVMG [M21V] | 2.18
AFTMAENLANCERLIEVEDMDVMG [M21D] | 3.83

Variant | protein stability index
AFTMAENLANCERLIEVEDMNVMG [M21N] | 3.13
AFTMAENLANCERLIEVEDMRVMG [M21R] | 2.23
AFTMAENLANCERLIEVEDMLVMG [M21L] | 2.39
AFTMAENLANCERLIEVEDMEVMG [M21E] | 4.11
AFTMAENLANCERLIEVEDMMPMG [V22P] | 2.65
AFTMAENLANCERLIEVEDMMLMG [V22L] | 2.18
AFTMAENLANCERLIEVEDMMTMG [V22T] | 2.25
AFTMAENLANCERLIEVEDMMIMG [V22I] | 1.78
AFTMAENLANCERLIEVEDMMMMG [V22M] | 2.19
AFTMAENLANCERLIEVEDMMAMG [V22A] | 2.05
AFTMAENLANCERLIEVEDMMKMG [V22K] | 2.87
AFTMAENLANCERLIEVEDMMWMG [V22W] | 1.77
AFTMAENLANCERLIEVEDMMDMG [V22D] | 2.55
AFTMAENLANCERLIEVEDMMRMG [V22R] | 2.46
AFTMAENLANCERLIEVEDMMYMG [V22Y] | 2.07
AFTMAENLANCERLIEVEDMMCMG [V22C] | 2.19
AFTMAENLANCERLIEVEDMMSMG [V22S] | 1.99
AFTMAENLANCERLIEVEDMMGMG [V22G] | 2.54
AFTMAENLANCERLIEVEDMMNMG [V22N] | 2.44
AFTMAENLANCERLIEVEDMMQMG [V22Q] | 2.82
AFTMAENLANCERLIEVEDMMHMG [V22H] | 1.85
AFTMAENLANCERLIEVEDMMEMG [V22E] | 3.18
